Biological target: UvsX recombinase (bacteriophage T4, UniProt P04529 1-391)
Experiment: fluorescence quenching; no nucleotide cofactor; 20 mM Tris-HCl pH 7.4, 50 mM NaCl, 3 mM MgCl2, 25 C; DNA in nucleotides or base pairs; quadratic fit with 4 nt (bp) site size
Settings: protein: recombinant; tags: none stated (pET27b, E. coli BL21(DE3)); label: AlexaFluor 546 on X (position 23); single strand

UvsX recombinase, sequence (P04529 whole entry): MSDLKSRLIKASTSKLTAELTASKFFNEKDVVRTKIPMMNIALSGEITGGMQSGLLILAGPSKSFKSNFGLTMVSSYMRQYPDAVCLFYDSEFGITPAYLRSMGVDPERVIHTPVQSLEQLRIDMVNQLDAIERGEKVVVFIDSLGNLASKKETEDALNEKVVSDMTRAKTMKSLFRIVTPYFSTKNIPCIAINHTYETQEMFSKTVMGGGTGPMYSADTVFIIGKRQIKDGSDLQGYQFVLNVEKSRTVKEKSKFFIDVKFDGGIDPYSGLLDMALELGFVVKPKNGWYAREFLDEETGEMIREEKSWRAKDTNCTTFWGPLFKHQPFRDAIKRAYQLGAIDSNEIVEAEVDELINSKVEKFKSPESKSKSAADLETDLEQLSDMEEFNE

TTTTTTTTTTTTTTTTTTTTTTTTT (ssDNA, X at position 23 = amino-modifier C2 dT) [dT22XT2 ssDNA]: binds.
